These results are taken from patent US20130196320A1, “METHOD FOR IMPROVING CLEAVAGE OF DNA BY ENDONUCLEASE SENSITIVE TO METHYLATION” (CELLECTIS, priority 2010, published 2013).

For data set [1], the system named is XPC4 target CpG motives in 293H cells. Nature of the data set: DNA methylation of XPC4 target by bisulfite treatment and sequencing, siRNA targeting DNMT1. It counts as cell-based, human. Conditions: for amount of unmethylated C, % of total: one of the two CpG of XPC4 target; for amount of unmethylated C: the other CpG of XPC4 target. From the text:
FIG. 15: Chromatogram. In order to determine the methylation status of the two CpG motives present in the XPC4 target sequence, genomic DNA was extracted, and treated with bisulfite. Bisulfite treatment is based on a chemical reaction of sodium bisulfite with DNA that converts unmethylated cytosines into uracil whereas methylated cytosines remain unchanged. DNA was then amplified by PCR and sequenced. […] For one of the two CpG ([…]; SEQ ID NO: 24) the amount of unmethylated C was estimated to 20 and 30% of total after 1 nM and 5 nM of si_DNMT1, respectively. For the other CpG ([…]; SEQ ID NO: 24) the amount of unmethylated C was estimated to 25 and 50% after 1 nM and 5 nM of si_DNMT1, respectively.
(§1) The human 293H cells (ATCC) were plated at a density of 1.2×10^6 cells per 10 cm dish in complete medium (DMEM supplemented with 2 mM L-glutamine, penicillin (100 IU/ml), streptomycin (100 μg/ml), amphotericin B (Fongizone: 0.25 μg/ml, Invitrogen-Life Science) and 10% FBS). The next day, cells were transfected with 5 μg of empty vector pCLS003 (SEQ ID NO: 65) and 1 nM or 5 nM of si_DNMT1 composed of mixture of two siRNA DNMT1—1 ([…], SEQ ID NO: 66) and DNMT1—2 ([…], SEQ ID NO: 67) or with si_AS, a siRNA control with no known human target, using Lipofectamine 2000 as transfection reagent (Invitrogen) according to the manufacturer's protocol. The day after, cells were re-platted at the density of 1.2×10^6 cells per 10 cm. 24 hours after, cells were transfected again with 1 nM or 5 nM of siDNMT1 or si_AS in presence of 3 μg of meganuclease expressing vector (pCLS2510; SEQ ID NO: 68) and 2 μg of empty vector or 5 μg of empty vector (SEQ ID NO: 65), with Lipofectamine 2000 transfection reagent (Invitrogen) according to the manufacturer's protocol.
To assess the level DNA methylation, DNA sequencing was performed after a bisulfite treatment according to the instructions of the manufacturer (EZ DNA methylation-Gold Kit, Zymo Research). After genomic DNA extraction, the XPC4 target locus was amplified by PCR with specific primers

The subject of data set [2] is XPC4 target locus in 293H cells. Nature of the data set: Meganuclease-induced mutagenesis at XPC4 target locus by deep sequencing, siRNA targeting DNMT1. It counts as cell-based, human. Conditions: for mutagenesis, PCR fragments carrying a mutation: Empty vector. Here is the method:
as §1
After genomic DNA extraction, the XPC4 target locus was amplified with specific primers flanked by specific adaptator needed for HTS sequencing on the 454 sequencing system (454 Life Sciences)
5,000 to 10,000 sequences per sample were analyzed.

In data set [3] the test system is RAG target in human RAG1 gene, 293H cells. Nature of the data set: Meganuclease-induced mutagenesis assay at RAG recognition site. Type of data set: cell-based. The settings on record: RAG meganuclease. Here is the method:
(§2) The human 293H cells (ATCC) were plated at a density of 1.2×10^6 cells per 10 cm dish in complete medium (DMEM supplemented with 2 mM L-glutamine, penicillin (100 IU/ml), streptomycin (100 μg/ml), amphotericin B (Fongizone: 0.25 μg/ml, Invitrogen-Life Science) and 10% FBS). The cells were pre-treated with 5-aza-deoxycytidine at 0.2 μM or 1 μM, 48 hours before transfection and the treatment was maintained 48 hours post-transfection. The medium was changed every day. The cells were transfected with 3 μg of DNA plasmids encoding meganuclease for RAG or 2.5 μg of each monomer CAPNS1 using Lipofectamine 2000 transfection reagent (Invitrogen) according to the manufacturer's protocol.
(§3) The efficiency of the meganuclease to promote mutagenesis at its endogenous recognition site was evaluated by sequencing the DNA surrounding the meganuclease cleavage site. Two days post-transfection, genomic DNA was extracted. 200 ng of genomic DNA were used to amplify (PCR amplification) the endogenous locus surrounding the meganuclease cleavage site. PCR amplification is performed to obtain a fragment flanked by specific adaptor sequences [adaptor A: 5′-[…]-NNNN-3′(SEQ ID NO: 46) and adaptor B, 5′-[…]-3′ (SEQ ID NO: 47)] provided by the company offering sequencing service (GATC Biotech AG, Germany) on the 454 sequencing system (454 Life Sciences). The primers sequences used for PCR amplification were:
RAG_F1: 5′-[…]-NNNN-[…] (SEQ ID NO: 57) and
(§4) RAG_R1: 5′-[…]-[…]-3′ (SEQ ID NO: 58) and CAPNS1_J3: 5′-[…]-NNNN-[…] (SEQ ID NO: 59) and CAPNS1_R3: 5′-[…]-[…]-3′ (SEQ ID NO: 60). Sequences specific to the locus are underlined. The sequence NNNN in primer F1 is a Barcode sequence (Tag) needed to link the sequence with a PCR product. The percentage of PCR fragments carrying insertion or deletion at the meganuclease cleavage site is related to the mutagenesis induced by the meganuclease through NHEJ pathway in a cell population, and therefore correlates with the meganuclease activity at its endogenous recognition site. 5000 to 10000 sequences were analyzed per conditions.

The test system of data set [4] is CAPNS1 target in human CAPNS1 gene, 293H cells. Nature of the data set: Meganuclease-induced mutagenesis assay at CAPNS1 recognition site. Conditions: CAPNS1 meganuclease. It counts as cell-based. Here is the method:
as §2, §3, §4

The test system of the next data set is C1221 DNA target. As to the kind of experiment: In vitro cleavage assay with C1221 duplex, increasing meganuclease concentration. It counts as biochemical. Here is the method: FIG. 2: In vitro cleavage of unmethylated or methylated C1221 by I-CreI. A constant amount of C1221 (50 nM) was incubated with increasing concentrations of I-CreI (0 to 2 μM) in reaction buffer (10 mM Tris-HCl, 150 mM NaCl, 10 mM MgCl2, pH8) for an hour at 37° C. The reaction was stopped and the remaining uncleaved C1221 was quantify and plotted as function of I-CreI concentration.
FIG. 3: In vitro cleavage of unmethylated or methylated C1221 by I-CreI D75N. 50 nM C1221 containing either 0, 1, 2 or 3 methylated CG was incubated with increasing concentrations of I-CreI D75N (0 to 2 μM) in reaction buffer (10 mM Tris-HCl, 150 mM NaCl, 10 mM MgCl2, pH8) for an hour at 37° C. The reaction was stopped and cleaved and uncleaved C1221 (top and bottom panel respectively) were quantify and plotted as function of I-CreI D75N concentration.
To investigate the influence of C1221 methylation on the nuclease activity of I-CreI, an in vitro cleavage assay with either unmethylated or fully methylated C1221 duplex (SEQ ID NOs: 4-5 and 12-13 respectively) was performed. A constant amount of C1221 duplex (50 nM) was incubated with increasing concentration of I-CreI (0 to 2 μM) in a total volume of 25 μL of reaction buffer (10 mM Tris-HCl, 150 mM NaCl, 10 mM MgCl2, pH8). Cleavage reaction was allowed to proceed 1 hour at 37° C. and then stopped by addition of 5 μL of 6× stop buffer (45% glycerol, 95 mM EDTA, 1.5% (w/v) SDS, 1.5 mg/mL proteinase K and 0.048% (w/v) bromophenol blue) followed by an hour incubation at 37° C. Cleaved and uncleaved DNA products were separated by PAGE using a TGX Any kD precast gel (Bio-Rad), stained with SYBR Green and then quantified using Quantity One software (Bio-Rad).
To investigate the influence of C1221 methylation on the nuclease activity of I-CreI D75N, in vitro cleavage assay with C1221 duplex containing either 0, 1, 2 or 3 methylated CG (SEQ ID NOs: 4-5, 6-7, 8-9, 10-11 respectively) was performed, according to the procedure described for I-CreI wild type.

As to “si_DNMT1: mixture of two siRNA DNMT1—1 (SEQ ID NO: 66) and DNMT1—2 (SEQ ID NO: 67) targeting DNMT1 gene (chain 1 ACGGTGCTCATGCTTACAACC; chain 2 CCCAATGAGACTGACATCAAA; mixture of two siRNAs, further chemistry not given here)”, the “amount of unmethylated C, % of total” value in data set [1] (1 nM) was 20%; in data set [1] (5 nM) it was 30%. In addition, the “amount of unmethylated C” value amounted to 25% in data set [1] (1 nM) and 50% in data set [1] (5 nM). Further, the “mutagenesis, PCR fragments carrying a mutation” value in data set [2] (Si_DNMT1 1 nM) is recorded as 0.022%; in data set [2] (Si_DNMT1 5 nM), 0.055%. Besides, the “mutagenesis” value in data set [2] (empty vector, 1 or 5 nM of si_DNMT1) is listed as “low or absent”.

B1: RAG: engineered single chain meganuclease (SEQ ID NO: 61) designed to cleave a sequence in the human RAG1 gene (protein)
chain: MANTKYNEEFLLYLAGFVDGDGSIIAQINPNQSSKFKHRLRLTFYVTQKTQRRWFLDKLVDEIGVGYVRDSGSVSQYVLSEIKPLHNFLTQLQPFLELKQKQANLVLKIIEQLPSAKESPDKFLEVCTWVDQIAALNDSKTRKTTSETVRAVLDSLSGKKKSSPAAGGSDKYNQALSKYNQALSKYNQALSGGGGSNKKFLLYLAGFVDSDGSIIAQIKPRQSNKFKHQLSLTFAVTQKTQRRWFLDKLVDRIGVGYVYDSGSVSDYRLSEIKPLHNFLTQLQPFLKLKQKQANLVLKIIEQLPSAKESPDKFLEVCTWVDQIAALNDSKTRKTTSETVRAVLDSLSEKKKSSP
As for B1, the “mutagenesis, PCR fragments carrying a mutation” value in data set [3] (0 μM 5-aza-2′-deoxycytidine) is listed as 0.76% ± 0.02; in data set [3] (0 μM 5-aza-2′-deoxycytidine, listed as RAG meganuclease), 0.75%±0.02; in data set [3] (0.2 μM 5-aza-2′-deoxycytidine), 0.71% ± 0.17; in data set [3] (0.2 μM 5-aza-2′-deoxycytidine, listed as RAG meganuclease), 0.71%±0.17; in data set [3] (1 μM 5-aza-2′-deoxycytidine), 0.59% ± 0.3; in data set [3] (1 μM 5-aza-2′-deoxycytidine, listed as RAG meganuclease), 0.59%±0.31.

B2: CAPNS1: engineered heterodimer meganuclease (SEQ ID NO: 62+SEQ ID NO: 63) cleaving the 5′ UTR of the human CAPNS1 gene (protein)
chain 1: MANTKYNKEFLLYLAGFVDSDGSIIAQIKPRQSYKFKHQLRLTFYVTQKTQRRWFLDKLVDEIGVGYVEDSGSVSRYVLSEIKPLHNFLTQLQPFLKLKQKQANLVLKIIEQLPSAKESPDKFLEVCTWVDQVAALNDSKTRKTTSETVRAVLDSLSEKKKSSPAAD
chain 2: MANTKYNKEFLLYLAGFVDGDGSIVAQIKPNQRAKFKHQLSLTFQVTQKTQRRWLLDKLVDEIGVGYVQDSGSVSNYRLSEIKPLHNFLTQLQPFLKLKQKQANLVLKIIEQLPSAKESPDKFLEVCTWADQIAALNDSKTRKTTSETVRAVLDSLSEKKKPSPAAD
As to B2, the “mutagenesis, PCR fragments carrying a mutation” value in data set [4] (0 μM 5-aza-2′-deoxycytidine) is 6.10% ± 0.43; in data set [4] (0 μM 5-aza-2′-deoxycytidine, listed as CAPNS1 meganuclease), 6.1%±0.43; in data set [4] (0.2 μM 5-aza-2′-deoxycytidine) it was 6.55% ± 0.77; in data set [4] (0.2 μM 5-aza-2′-deoxycytidine, listed as CAPNS1 meganuclease) it was 6.55%±0.77; in data set [4] (1 μM 5-aza-2′-deoxycytidine), 4.34% ± 0.95; in data set [4] (1 μM 5-aza-2′-deoxycytidine, listed as CAPNS1 meganuclease), 4.34%±0.95.

B3: I-CreI D75N: I-CreI D75N meganuclease variant, SEQ ID NO: 22 (protein)
chain: MANTKYNKEFLLYLAGFVDGDGSIIAQIKPNQSYKFKHQLSLAFQVTQKTQRRWFLDKLVDEIGVGYVRDRGSVSDYILSEIKPLHNFLTQLQPFLKLKQKQANLVLKIIWRLPSAKESPDKFLEVCTWVDQIAALNDSKTRKTTSETVRAVLDSLSEKKKSSPAAD
In the case of B3, the “increase of C50” value with C1221 DNA target (C1221 with one methyl group on both strand vs unmethylated) is “about 3 folds”; with C1221 DNA target (C1221 with three methyl groups vs unmethylated), “more than 10 folds”; in the data set on C1221 DNA target (C1221 with two methyl groups vs unmethylated) it was “more than 10 folds”. For the same molecule, in the data set with C1221 DNA target (unmethylated C1221), the “meganuclease concentration at which C1221 cleaved product leveled up” value is listed as “about 500 nM”. Besides, the EC50 with C1221 DNA target (unmethylated C1221, 1 hour at 37° C., read-out: C50 (concentration of meganuclease needed to cleave 50% of C1221)) fell in the range of 100 to 150 nM.
